Assay results: the Human Domainome abundance scans (Beltran et al. 2025)

B1: Formin-binding protein 4, residues 200 to 261; numbered along this chain, Q8N3X1 (parent)
chain: SGWQYDTQCSLAGVGIEMGDWQEVWDENTGCYYYWNTQTNEVTWELPQYLATQVQGLQHYQP

Variants of: B1
Test: abundance fitness (aPCA) (normalised: wild type 0, dead -1); higher = more abundant; growth selection in yeast, the domain comes from the species named
Details: Homo sapiens

Abundance fitness: each site, then its substitutions
L46: G -0.787 | N -0.625 | H -0.626 | W -0.493 | M -0.224 | T -0.229 | C -0.309 | Q -0.264 | D -1.08 | A -0.461 | Y -0.059 | I -0.245 | E -0.525 | R -0.467 | S -0.779 | V -0.303 | K -0.631 | F -0.46 | P -0.454
V42: W -0.457 | M 0.12 | E 0.063 | R 0.095 | N -0.203 | I -0.188 | Y -0.453 | F -0.148 | C -0.242 | P -0.415 | S 0.02 | L -0.202 | Q 0.308 | K 0.084
E41: I -0.324 | L -0.111 | G -0.471 | K -0.081 | M -0.34 | Q 0.014 | F -0.556 | V -0.323 | A -0.109 | W -0.378 | Y -0.231 | T -0.283 | D -0.268 | C -0.409 | R -0.158 | H -0.472 | N -0.364 | S -0.349 | P -0.776
Q55: H -0.482 | S -0.177 | L -0.184 | C 0.121 | K -0.173 | P -0.647 | A -0.012 | T -0.18 | N -0.186 | W 0.039 | I -0.321 | D -0.005 | M -0.102 | F -0.018 | R -0.12 | E -0.268 | Y -0.389 | V -0.173
G56: T 0.015 | F -0.464 | R 0.004 | E 0.224 | Y -0.401 | A -0.018 | Q 0.076 | S -0.031 | V -0.219 | I -0.425 | H -0.186 | M -0.367 | C -0.255 | L -0.209 | D 0.177 | W -0.16 | N 0.051 | P -0.178
Q58: M -0.067 | K 0.127 | F -0.195 | C -0.293 | L -0.36 | G -0.086 | H -0.005 | W -0.421 | N 0.083 | R -0.242 | Y -0.256 | T -0.139 | A -0.019 | E -0.059 | P -0.209
A51: Q -0.519 | S -0.178 | V -0.237 | T -0.306 | P -0.752 | Y -0.124 | L -0.323 | M -0.245 | G -0.346 | H -0.308 | I -0.703 | D -0.388 | E -0.3 | N -0.237 | W -0.175 | K -0.025 | C -0.145 | R -0.087
T43: C -0.02 | F -0.34 | R -0.262 | M -0.317 | A -0.1 | W -0.584 | N -0.263 | S -0.021 | G -0.401 | E -0.053 | L -0.092 | Y -0.332 | K -0.172 | Q -0.018
H59: E 0.137 | F -0.062 | A 0.008
T52: D 0.301 | I 0.029 | M -0.218 | K 0.335 | Y -0.248 | N -0.028 | P -0.486 | G 0.038 | L -0.064 | W -0.295 | Q -0.202 | V -0.011 | S 0.008 | R 0.034 | A 0.085
L57: G -0.15 | S -0.084 | P -0.075 | I -0.136 | W -0.349 | N -0.212 | M -0.159 | C -0.305 | E -0.093 | Y -0.315 | D -0.043 | R -0.029 | H -0.084 | K 0.312 | Q 0.047 | F 0.02 | V -0.047
P47: F -1.1 | K -0.274 | G -1.04 | I -1.02 | S -0.95 | E -0.985 | V -0.583 | M -0.721 | D -1.17 | C -1.22 | R -0.895 | Y -1.11 | T -1.01 | W -1.12 | H -1 | Q -1.23 | A -0.842
Y49: S 0.126 | W -0.266 | F 0.004 | A 0.022 | T -0.007 | H 0.118 | C -0.069 | M -0.113 | P -0.165 | K -0.181 | V -0.097 | E 0.09 | L -0.126 | D -0.006 | I 0.081 | R -0.527 | N -0.162
E45: A -0.213 | Y -0.484 | N -0.282 | F -0.398 | G -0.321 | D -0.149 | R -0.165 | V -0.294 | L -0.21 | W -0.598 | P -0.552 | Q 0.05 | H -0.338 | I -0.089 | T -0.076 | M -0.325 | K -0.069
W44: Q -0.061 | K 0.043 | Y 0.089 | P -0.218 | A -0.221 | T -0.077 | F -0.121 | G -0.135 | S -0.037 | C -0.078 | N 0.068 | D -0.429 | I -0.503 | V -0.127 | L -0.226 | H -0.236 | E 0.078 | R 0.03
L50: N -1.06 | A -0.822 | G -0.767 | E -0.488 | I -0.214 | H -0.732 | T -0.704 | K -0.719 | D -1.04 | Q -0.7 | W -0.48 | P -0.741 | S -0.613 | M -0.52 | F -0.716 | C -0.45 | R -0.82 | Y -0.738
T39: Y -0.579 | R -0.306 | Q -0.226 | N -0.093 | S 0.017 | W -0.568 | P -0.873 | V -0.877
V54: D -0.644 | G -0.546 | T -0.403 | K -0.589 | L -0.094 | Q -0.754 | F -0.214 | R -0.625 | E -0.741 | Y -0.274 | I 0.1 | P -0.741 | H -0.716 | A -0.336 | N -0.48 | M 0.055 | S -0.603
N40: T -0.096 | Y -0.564 | I -0.607 | G -0.037 | P -0.931 | S -0.057 | E -0.04 | V -0.556 | A -0.08 | Q -0.056 | F -0.37 | H -0.032 | C -0.505 | R -0.157 | W -0.34 | M -0.298
Q53: L -0.457 | S -0.765 | D -0.314 | K -0.188 | A -0.407 | P -0.663 | H -0.68 | R -0.215 | W -0.634 | T -0.606 | F -0.621 | C -0.738 | G -0.688 | E -0.588 | I -0.611 | V -0.679 | M -0.624
Q48: P 0.319 | K 0.129 | N -0.059 | S -0.038 | A -0.039 | E -0.024 | C -0.147 | L 0.043 | Y 0.23 | W -0.417 | I -0.262 | R -0.061 | T 0.053 | M 0.085 | H -0.133 | F -0.293 | D 0.02 | V -0.127 | G -0.007
